The DeepSol protein solubility set

Assay: soluble on expression in E. coli; label from the status in PepcDB or PDB records
For “MGSDKIHHHHHHMKKQNIAGFSKVDDTANPQDFVSYLDAISSLNSIQKYKQQTFTRLEIQAGDRILDVGCGIGDDVRSLAVKVGNAGEVVGIDRSETMVKEAQSRSADLGLPVAYYVGDAEKLEFPDCTFDACRSDRTFQHLLNPRQALTEIVRVTRCGGRVVVSDPDWETLVIDTGDRALTRKILNFHCDSCVNGWIGRQLPTLFQEVGLHKINVDTYTLILTDCTLADKHLGVINAAMKAQQAGLISIAEAANWITNLEAASQAGRFFCAITGFLAFGCKP”, the “soluble on expression in E. coli” value was “not soluble”. With “MGEWEIIDIGPFTQNLGKFAVDEENKIGQYGRLTFNKVIRPCMKKTIYENEGFREIKGYEYQLYVYASDKLFRADISEDYKTRGRKLLRFNGPVPPP” the “soluble on expression in E. coli” value was “soluble”. In the case of “GDAFVGTWKLVSSENFDDYMKEVGVGFATRKDAGMAKPNMIISVNGDLVTIRSESTHKNTEISFKLGVEFDEITADDRKVKSIITLDGGALVQVQKWDGKSTTIKRKRDGDKLVVECVMKGVTSTRVYERA”, the “soluble on expression in E. coli” value is reported as “soluble”. In the case of “MGSDKIHHHHHHMGKPRIVILGGGFGGLYTARALHRTFRDTAEIEVITAENYFVFQPLLPEVGAGSVTPIHATSPYRFLLKGVGIRKAMIDSVDFAAKRVTVFQGVQRRPTEVPYDHLVVALGQTVDLSRTPGLEAHALTMKTLEDARRLRAHVIERLEHADITNLPEVKRGALTFTVIGGGFSGIETVGEMAELIDRSLKYYPNVSRDEVRIIVLEFADKVLAEMPEKLRAYAQAQLEKRGVEVCLNTGIASATGTQITTTDGDVIDTRTVVATIGNAPAPVVKRMDLPLTQGRIAVERDLSVPGRDGVWSLGDCALIPMVEDANAREDYAPPTAQFAVREAKQLAANIKRAVDGTALKPFEYTSKGSMASLGARRGIADVMGIRLTGFLAWVLWRAYYVAFLPGFPAKVWVLSHWVLDWVTPRSLVNLSSPKTDASRHIRYAKGDRIYETGNRADTFFTIIEGAVEITNAKGHDGQPTTRRIEPGGHFGERLILGATRRVATARALEDTVVLAMGRDEFLKLTRALPALRDYFEAHLAEKGLDWAPEPDERRDAAE”, the “soluble on expression in E. coli” value is reported as “not soluble”. In the case of “MGPYNYGWHDSDEAGKKARRGLDEDVVRYISAQKNEPEWMLEQRLKALNTFEKKPMPTWGPDLSYINFDDFKYYVRSTEKQATTWDDLPEDIKNTYDKLGIPEAEKQRLVAGVAAQYESEVVYHQIREDLETQGVIFLDTDTALKEHPELFQEYFGTVVPAGDNKFSALNSAVWSGGSFVYVPKGVHVEIPLQAYFRINTENMGQFERTLIIVDEGAYVHYVEGCTAPIYQSDSLHSAVVEIIVKKNARCRYTTIQNWSNNVLNLVTQRSKVEEGGTMEWVDGNIGSKVTMKYPAVWMVGPHAKGEVLSAAFAGEGQIQDTGAKMQHMAPYTSSNIVSKSVARSGGRAAYRGLVRVAANAHHSVSNVECDALLVDNISRSDTYPYNDIRNDHVSLGHEATVSQVSEEQLFYLQSRGIAEDEAMAMIVRGFVEPIAKELPMEYALELNRLIELQMEGSVG”, the “soluble on expression in E. coli” value is reported as “not soluble”. In the case of “MMTNPKVIILGGRFGGLQTAYELKRYLKGKIDIKLIERNRYIYFRPALPHVAIGLENPDDLRIDISEALSAKGIEYIQGTVTRIDPAKNTVEYNKEGAGPSKEKYDYLVIALGSHLATELITGFEKFGSSVCEADLALSMWNKLNAFKGGNITLGSAKFIQDNKNRPTNNPDAYAPLLESACEGPVYEMSIMLYDYFKAKGMLDKVKMTVYSPGKYLSDLSETNRATVAAMYKGMDIDIVDNFVLKEVTEKEVISEDGKRLPSDLSFILPPYMGQQMVKDAGLGDEAGFVLTDTNMKSVKYDNVYAVGDINALIVPKMAALAVKSARIAAANIANNLGNKVPIEVYDPKIVCIADDPYGKYAVAIVDSTAYGGNISEAVPSAANHLKKSLFTRYFLWSKGDLAMDKYLTSWLEHHHHHH”, the “soluble on expression in E. coli” value is reported as “not soluble”. In the case of “MAHHHHHHMISRINIDGSVNGRFCKKINNNIDCKLNFNTYAKNDTRNMYEMSLEVNKPLYTYNFKSIWQGAWIFNTSYTQLLTKKLQAGVDLTYIASNCASIGSFGLRYNHKNNVLTMQIVRQPNFKSPEFMLNQTHLYKIQYAKKISDRLSLGTELEITPQTKESAMRLGWDYSFRHAKVQGSIDTSGKISVFTQDYSGFGVSGYIDYLNNDYKFGFMMHISPSQEQPQTAA”, the “soluble on expression in E. coli” value is reported as “not soluble”. With “MATTATRHQDSKLSEKAESILAGFKLNWMNLRDAETGKVLWQSTEDMADPKREHKAHVPKNLLKCRTVSREINFTSSVKIEKFRLEQRVYLKGTIIEEWYFDFGFVIPDSTNTWQNMIEAAPESQMFPPSVLSGNVVVETLFYDGDLLVSTSRVRLYYD” the “soluble on expression in E. coli” value was “not soluble”. In the case of “MTRHALAYVAGAYEHPLRHAPDKSVAQLHAESARGALDDAGLSFADVDGYFCAGDAGLGPAYMVDYLNLTPRHVDGTEIGGGSYLAQIGHAAHAIAAGKCSVALITLAGRPRSEGQATGTEPRIPGPDRPSAPWDSAYRWTIGTIYGNFARRHMHEYGTTSEQLAWVKVAASHHAQHNPNALLRKVYTVDDVLGSPMVADPLHRLDCCVITDGGGALVIVAPEVARSLNRPRIKVV”, the “soluble on expression in E. coli” value is reported as “not soluble”. For “MSLKVVSLLTDFGDFYPGVMKGVILSLAPEARIVDITHSVEPQNILQGAFLLYHSFRYFRNAVHVAVVDPGVGSERRALVIEGKNHFFVGPDNGILYPSAVEDGIKAAYSIKEEISELVGELSSTFHGRDIFAPAAAMVVRGDYTYFEEINKEELEKLELFDCSIQGNKVRCRVVYVDRFGNVVTNLREVKGKGFYFRGVEFPFVKTYSDVDVGKPLSLIGSFGTLELSVREGSAAEMLGIKRGGGWIELEVLEGGSHHHHHH”, the “soluble on expression in E. coli” value was “soluble”. With “MKRNGETKRRRNVAEEAEQGEDPAMWENLDRNFRQVQSVLDRNRSLIQQVNDNHQSRMADNMSKNVALIQELNGNISKVVNMYSDLNTSFSSGFHGGKNGHDGGGAAGTRA” the “soluble on expression in E. coli” value was “soluble”. For “PVLATQWNNYQQSRAAEAYSQLEKGVPPEVLNKAWEEAQQYNANLGDIDPGDAWTSSDDESSSAYQRYLNYLSALNETEAMGRIVLPSIKSDLPIFHGTSDRVLARGVGHLYGTDLPVGAPGELGEDGVIPPAPPEGRLS”, the “soluble on expression in E. coli” value was “not soluble”. In the case of “MGSDKIHHHHHHMTQLPNFSQSLSQLIACPSISSTQPSWDQGNKEVIQLLATWFEQLDFNIEIQAVPNTSNKFNLLAKLGSGEGGLLLAGHSDTVPFDENRWQSNPHTVVNQDDKFFGLGTCDMKGFFAFILQVCKNLRADQLKKPLYILATADEETTMAGARFFAKSQAIKPDVAIIGEPTNLVPVVMHKGHMSHRISVEGKSGHSSKPNLGINAIEIMYKVIGQLIELKEKFQLNYENQAFDVPAPTLNLGAISGGDNANRICGHCHLDIDLRSLPGMSDDELINWLSEALKPLAELYPGRISFEEMHPSSPSFEQKKPSTLIDIAQEISGHSCCAVNYATEAPYIQQLGCQTIVLGPGSIDQAHQPNEFLAHSEIDKTEKLLTKMIQHYCL”, the “soluble on expression in E. coli” value is reported as “not soluble”. For “MAQRFTDEVAIVTGSSNGIGRATAILLASEGAKVTITGRNAERLEESRQALLKVGVPSGHINSVVADVTTGAGQDVLIDSTLKKFGKINILINNAGALIVDPEGKTNTSTGVETCLKTFQLNFQSVVEMTQKIRPHLANTHGEIVNVSSVGAGPAAENRFPYYSAAKAALDQYSRNTAIDLIPDGIRVNIVQPGFVATGFTTAASGMSPDASAKMYEGIGANTSCIPAGYCGRPEHLASVIAFLADRKASEYIVGQTIIADGGTTLVRGRNVALATRRAE”, the “soluble on expression in E. coli” value was “not soluble”. For “MIELKEVVKEYRTKNKEVLAVDHVNLSIRAGSIYGVIGFSGAGKSTLIRMFNHLEAPTSGEVIIDGDHIGQLSKNGLRAKRQKVNMIFQHFNLLWSRTVLKNIMFPLEIAGVPRRRAKQKALELVELVGLKGREKAYPSELSGGQKQRVGIARALANDPTVLLCDEATSALDPQTTDEILDLLLKIREQQNLTIVLITHEMHVIRRICDEVAVMESGKVIEHGPVTQVFENPQHTVTKRFVKEDLNDDFETSLTELEPLEKDAYIVRLVFAGSTTTEPIVSSLSTAYDIKINILEANIKNTKNGTVGFLVLHIPYISSVDFGKFEKELIERQVKMEVLRHG”, the “soluble on expression in E. coli” value was “not soluble”. For “MGSDKIHHHHHHMITVSNVSVQFGKRVLFNDVNLKFTSGNCYGIIGANGAGKSTFLRTIYGDLDPTTGTIALGPGERLSVLSQDHFKWDAYTVMDTVMMGHTVLWDIMKQREVLYAKEDFTDEDGLKVSELEEKFAELDGWNAESDAAMLLSGLGIKEDKHYTLMGELSGKEKVRVMLAQALYGNPDNLLLDEPTNDLDMETVTWLEEYLSNFEHTVLVVSHDRHFLDSVCTHTVDIDYGKINMFAGNYSFWYESSQLALRQQQNQKAKAEEKKKELEEFIRRFSANVAKSKQTTSRKKMLEKLNVEEIKPSSRKYPGIIFTPEREPGNQILEVSGLSKKTEEGVVLFSDVNFNIEKGDKVVFLSRNPRAMTAFFEIINGNMKPDAGQFNWGVTITTAYLPLDNTDFFNTDLNLVDWLSQFGEGNEVYMKGFLGRMLFSGEEVLKKVSVLSGGEKMRCMIARMQLRNANCLILDTPTNHLDLESIQAFNNNLKTYKGNILFSSHDHEFIQTVANRIIELTPNGIIDKMMEYDEYITSDHIKELRAKMYGDK”, the “soluble on expression in E. coli” value was “not soluble”. For “MTEHTAPTAPVADVCLLLEGTWPYVRGGVSSWVNQLILGLPDLTFSVFFIGGQKDAYGKRHYPIPDNVLHIEEHFLETAWSSPNPQTRQGSSETEKALRDLHRFFHYPETPDVEEGDALLDLLAEGRIGREDFLHSKASWEAITAGYERYCTDPSFVNYFWTLRSMQAPVFMLAEAARRMPRARMLHSISTGYAGLLGCILQRRWGCRYLLSEHGIYTKERKIDLAQANWIAENPDEQLSTGLDAEVSYIRRLWIRFFERVGLLTYRAANPIVALYEGNRQRQVLDGAEPRRTRVIPNGIDLDAWTGALERRPPGIPPVVGLVGRVVPIKDVKTFIRAMRGVVSAMPEAEGWIVGPEEEDPDYASECRSLVASLGLQDKVKFLGFRRIGEVLPQLGLMVLTSISEAQPLVILEAWAAGAPVVSSDVGSCRELIEGADAEDRALGRAGEVVAIADPQATSRAILALLRNPQRWQAAQAVGLQRVERYYTEALMLGRYRGLYREATEIA”, the “soluble on expression in E. coli” value was “not soluble”. For “MQEEVNEKTVSLCITGGKVTARLLKQAMMRFLAAMEKEKAEKARKQQVKGPPDKDYHGKQSLKKLAQQNVQLSNIEITDNNIKAFEKVAKKYGIDFSLKRDKSVDPPRYFVFFKARDVDVMTAAFREFTGKTLNKTKKPSVRKKLQQAIAARSQDKQREREKSKEKQKEPTL”, the “soluble on expression in E. coli” value was “not soluble”. In the case of “MSLINLKHSFGISRSSHDFYDIVYFYIVDGEIIGRGEAAPSKRYNETTEKIISVLNKGILVPENFEDADQLWEYIKPQLEGISALEAAANMAIWDWRGQKENKAVHDILGFNVSKLPATSYTISIGDMSELDEKIELSNPYSIIKVKLGTPNDDKEIISQIRQRTDKLIRVDANEGWSLDNAKEMSYWLADRNVEFIEQPFKAKMLNETRSLREFSPLPLFADENSLVSSDIPNIVDCFDGINIKLMKCGGLDEALKMIEIAKHFDMQIMLEGHHHHHH”, the “soluble on expression in E. coli” value is reported as “not soluble”. In the case of “MVALAILRVEKLKSFGNVGGSEKHTARLQDTPNADTTKKNIRLIGMEDNSSLEDLVKTKIANTTKHKPRKDAVLCSEMFLSASPEYFRPDDPSRAGEWNHERMVLFAGASRQWLINNYGDKCVRAELHLDEATPHIHAYIVPINDKTKQLSHKEMFGGNGRVGSIKLSKLQDSYASALAPLGIERGVKGSKATHTKVKEYYQAVNSEPLTAVWSNKKLAPQPLESATNYVARIQNDDQFHAINHQLADRAFMQERLERAEQRARASEKERQRLEKEVRSLELKTQQLRDLELLDVAWELGLDYERERWRGHGHIINIDGSKFYDFSPDQQKGGGGAIDLVMHVNQCNFRQAVVWLHERFGEAGVERAAIAHVKNRAADIIQAEPRPQFTPPVENKANWPAVERYLTQQRGIPSDCLQMLQNLGLLYADDQQNAVFVMRDLEGQTSGAFLRGTRGENNSFKGYSKGTKRSDSWFYFGLGGQATDKVAHVLLCSSPIEAVSRAMLEYFVRGNVPPERTLYMAVDNINSLPVERLQNVPNILVTFGKDQSTNAAAQRVLELLPQSQQVLSKAADWNQQLLEYGWQLRRQQYQQQDDELSILEHHHHHH”, the “soluble on expression in E. coli” value is reported as “not soluble”.
